The values below come from paper PMC8752837, “Structural basis of BAK activation in mitochondrial apoptosis initiation” (Nature Communications, 2022).

Bounds are passed on as bounds.

The test system of data set [1] is BCL2allKO HCT116 cells expressing mC-BAK and BID. Description: Dox + TRAIL + CHX induced cell death by IncuCyte imaging of SYTOX Green uptake (direct activation). The format is cell-based, human. To be noted: TRAIL 200 ng/mL + CHX 0.5 µg/mL added at 6 h. How it is done: We achieved stable, constitutive expression of human BID in mC-BAK expressing BCL2allKO HCT116 by retroviral transduction based on pMX-human-BID-IRES-GFP. Amplification primers are included in Supplementary Table 4. We performed two rounds of FACS sorting gating on GFP-positive cells to enrich for populations of cells that express BID.
For coexpression of mC-BAK + BID, we treated cells with different doses of Dox for 24 h to induce expression of mC-BAK. At 6 h, we treated cells with TRAIL (200 ng/mL) + cycloheximide (CHX, 0.5 µg/mL) to promote BID activation under conditions of protein synthesis inhibition by CHX, and continued to record Incucyte imaging of SYTOX Green uptake up to 48 h. We blocked caspase activity with qVD (40 µM).

The test system of data set [2] is BCL2allKO HCT116 cells reconstituted with Dox-inducible mC-BAK. Description: Dox-induced cell death by IncuCyte imaging of SYTOX Green uptake (autoactivation). The note with it: for SYTOX Green +ve counts/confluence AUC of kinetic traces: Fig 3d; for Dox-induced cell death: IncuCyte SYTOX Green up to 48 h; for AUC (48 hr) of SYTOX Green counts/confluence: mC-BAK BCL2allKO HCT116 + Dox + qVD, average, N = 3. The format is cell-based, human. From the text: For mammalian cell culture experiments, we cloned the full length human BAK cDNA into pCR 2.1 TOPO vector, mutated BAK as needed, and PCR amplified the BAK gene for cloning into the BamHI and NotI sites of pRETROX mCherry vector for retroviral transduction. Amplification and mutagenesis primers are included in Supplementary Table 4. To test direct BAK activation and BAK autoactivation in cells, we produced cells stably expressing mCherry-human BAK (mC-BAK) ± human BID (BID) on a genetic background devoid of the entire BCL-2 family repertoire (all 17 BCL-2 genes), BCL2allKO HCT116, as described by the Xu Luo laboratory. We expressed WT and mutant mC-BAK using the doxycycline (Dox)-based inducible Tet-On 3G retroviral system from the pRetroX-TRE3G-Puro^R in BCL2allKO HCT116 cells expressing the Tet3G from pRetroX-Tet3G-Blast^R. We selected cells with puromycin (2.5 µg/mL) and blasticidin (2 µg/mL) starting at 2 days after retroviral transduction. To enrich for populations of cells that express mC-BAK, we treated cells with low Dox dose (25 ng/mL) and fluorescence-activated cell sorted (FACS) the mCherry positive cells. We performed the enrichment twice before cell death analysis. One caveat of our cellular system is tagging BAK with N-terminal mCherry, which may affect folding efficiency, degradation, and BAK interactome.
(§1) We seeded cells in 24-well (100,000 cells/well), 96-well (15,000 cells/well), or 384-well (10,000 cells/well) plates coated with 10 µg/mL fibronectin. After ≥24 h of attachment and recovery, we induced cell death with Dox (up to 1000 ng/mL) and monitored SYTOX Green (25 nM) uptake by Incucyte imaging. This dye marks cells with compromised plasma membrane integrity. mC-BAK expressed before 24 h, which coincided with detectable cell death. We monitored Incucyte imaging for up to 48 h, followed by endpoint FACS analysis to measure the extent of cell death based on SYTOX Green positive cells on FACSCalibur systems (BD Biosciences). As expected, cells with low mCherry fluorescence were refractory to cell death.

Data set [3] deals with BCL2allKO HCT116 cells reconstituted with mC-BAK. Description: Endpoint FACS analysis of SYTOX Green positive cells. It is filed as cell-based, human. To be noted: average, N = 3. As for the experimental part:
as §1

For data set [4], the system named is BAK. Description: Dye-based thermal shift assay (SYPRO Orange). The format is physicochemical, human. To be noted: rebuttal. As for the experimental part: To control for effect of mutations on protein stability, which may confound interpretation of impairment in BAK autoactivation, we measured the Tm of BAK WT and mutants (Supplementary Fig. 3f).
(§2) We carried out TSA in 20 µL reactions in 384-well PCR plate (Cat# AB1384, Thermo Fisher Scientific) in 20 mM HEPES pH 7.0, 150 mM NaCl, 2 mM DTT), SYPRO ^TM Orange (5×) and 0.25 mg/mL purified BAK. To remove air bubbles we sealed assay plates with MicroAmp Optical Adhesive, incubated them for 2–5 min, and centrifuged them (1000 × rpm). We subjected the assay plates to 25–99 °C thermal gradient with 1°/minute increment and recorded fluorescence using Applied Biosystems Quant Studio 5. We performed three experiments in quadruplicate for each sample. We performed data processing and visualization in RISE, and final data analysis in Excel and GraphPad Prism. We also carried out dye-free TSA using capillary-based Prometheus NT.48 Nano Differential Scanning Fluorimetry (Nanotemper) in the same buffer conditions with 15 μM BAK. Melting temperature (Tm) values were obtained from the first derivative of melting scans.

Data set [5] relates to BAK. Description: Dye-free nano Differential Scanning Fluorimetry thermal shift assay. The format is physicochemical, human. The note with it: without DTT; mean of N = 3; Suppl. Fig. 7h. As for the experimental part:
Through rational design and structural analysis, we expand the list of activated BAK complexes, supporting requisite BH3 ligand-induced destabilization of helix α1 (see below).
as §2

Data set [6] can be described thus: Liposome permeabilization by WT and mutant BAK proteins (autoactivation, or direct activation by BID BH3). The note with it: no BH3 peptide; liposomes with […] DGS-NTA(Ni); Fig. 1a. It is filed as biochemical. How it is done:
Human BAK-∆TM-His6 (BAK)[26] spontaneously permeabilizes liposomes above a certain dose (>100 nM, Fig. 1a). In these dye-release assays[43]–[46], BAK is recruited via His-tag to liposomes containing 2.5 µM of the lipid 1,2-dioleoyl-sn-glycero-3-[(N-(5-amino-1-carboxypentyl)iminodiacetic acid)succinyl] (nickel salt), DGS-NTA(Ni).
To probe autoactivation with full-length BAK, we mutated hydrophobic residues at positions (0)−(6) of the BH3 to alanine or arginine, and D83, which forms the conserved salt bridge (s) with R127, to alanine (Fig. 2a). The BH3 residues participate in autoactivation from the ligand side [hydrophobic positions (0)–(5) and D83(s)] and also from the receptor groove side [hydrophobic positions (3)–(5)] (Fig. 2a). Thus, substitutions at positions (3)–(5) should affect receptor and ligand activities and are predicted to impact BAK activation more severely than mutations of positions (0)–(2), which affect only ligand activity. […] In contrast, almost all (2)–(5) and (s) missense mutants were considerably impaired in autoactivation (Fig. 2b and Supplementary Fig. 3a). […] Despite impairment in autoactivation, all missense mutants were directly activated by BID BH3 peptide, although they induced lower level of permeabilization compared to WT BAK (Fig. 2b and Supplementary Fig. 3a).
We performed liposome permeabilization assays as previously described[43]–[46]. […] (nickel salt) [DGS NTA(Ni), 2.5 μM final concentration in each assay] (Avanti Polar Lipids). We prepared 12.5 mM fluorophore; 8-aminonaphthalene-1, 3, 6-trisulfonic acid, disodium salt (ANTS) and 45 mM quencher; p-xylene-bis-pyridiniumbromide (DPX) in LUV buffer (10 mM HEPES pH 6.8, 200 mM KCl and 5 mM MgCl2). We mixed the lipid film in ANTS/DPX solution by vortexing and sonication (~15 min) followed by extrusion through polycarbonate membrane of 2 μm pore size (Avanti Polar lipids) to generate homogenous large unilamellar vesicles (LUVs). We separated LUVs from free ANTS/DPX by S500 size exclusion chromatography and stored them at 4 °C in the dark. We prepared peptide and protein dilutions in 96-well black flat bottom plates (Costar) kept on ice. ANTS release from permeabilized liposomes causes an increase in fluorescence, which we monitored at 37 °C for 90 min using a CLARIOSTAR microplate reader (BMG Labtech) set at excitation and emission wavelengths of 360 and 530 nm, respectively. We normalized the data relative to maximum and minimum fluorescence induced by 3% CHAPS and buffer controls, respectively. We quantified liposome permabilization by integrating area under curve (AUC) of normalized traces based on the Simpson’s equation, and analyzed that data in Excel and GraphPad Prism. AUC measurements reflect the kinetic and extent of liposome permeabilization and provide quantitative means for comparison between different experimental conditions (e.g., BAK mutants with gross or partial variation in activity). Variability in permeabilization of different liposomes is common and our analyses compare among conditions investigated with the same liposomes. Although the absolute permeabilization values may differ, the trends for the same conditions are always very similar between different liposomes.

B1: D83A (s): BAK missense mutant, autoactivation-impaired; in cells as mCherry fusion (protein)
chain: MASGQGPGPPRQECGEPALPSASEEQVAQDTEEVFRSYVFYRHQQEQEAEGVAAPADPEMVTLPLQPSSTMGQVGRQLAIIGADINRRYDSEFQTMLQHLQPTAENAYEYFTKIATSLFESGINWGRVVALLGFGYRLALHVYQHGLTGFLGQVTRFVVDFMLHHCIARWIAQRGGWVAALNLGNG
modifications: left off: His6, C-terminal, kept
notes: in cells as mCherry fusion
Consider B1, for which the “cell death with Dox + TRAIL + CHX compared to Dox alone” value in data set [1] is on record as “boosted the levels of cell death”. The “SYTOX Green +ve counts/confluence AUC of kinetic traces” value (“SYTOX Green +ve counts/confluence AUC” for short) in data set [2] (Dox 6.25 ng/mL) stood at 251.48; in data set [2] (Dox 6.25 ng/mL + qVD) it was 178.809; in data set [2] (Dox 12.5 ng/mL) it was 298.87; in data set [2] (Dox 12.5 ng/mL + qVD), 216.467; in data set [2] (Dox 25 ng/mL) it was 546.446; in data set [2] (Dox 25 ng/mL + qVD), 167.305. For the same molecule, the “SYTOX Green +ve counts/confluence AUC” value in data set [2] (Dox 50 ng/mL) is listed as 973.937; in data set [2] (Dox 50 ng/mL + qVD) it was 180.875; in data set [2] (Dox 100 ng/mL), 1429.67; in data set [2] (Dox 100 ng/mL + qVD) it was 197.929; in data set [2] (Dox 500 ng/mL), 1807.16; in data set [2] (Dox 500 ng/mL + qVD) it was 226.028. The “SYTOX Green +ve counts/confluence AUC” value was found to be 2018.82 in data set [2] (Dox 1000 ng/mL) and 223.673 in data set [2] (Dox 1000 ng/mL + qVD). The Dox-induced cell death entry in data set [2] was “consistently less potent at inducing apoptosis than V74A(1)”. Besides, the figures for the “AUC (48 hr) of SYTOX Green counts/confluence” value in data set [2] (Dox 100 ng/mL) and in data set [2] (Dox 1000 ng/mL) were 54126.6 and 77700.1, respectively. Also, the “fold higher expression level for similar cell death compared to V74A” value in data set [2] (mC-BAK/actin immunoblot, Fig. 3d) is on record as ~ 10 fold. Also, the “flow cytometry SYTOX Green counts/confluence (48 hr)” value was determined as 35.2333 in data set [3] (Dox 100 ng/mL) and 43.7667 in data set [3] (Dox 1000 ng/mL).

B2: I81R (3): BAK missense mutant (protein, UniProt Q16611 2-211, looked up, variant I81R)
Bcl-2 homologous …: ASGQGPGPPRQECGEPALPSASEEQVAQDTEEVFRSYVFYRHQQEQEAEGVAAPADPEMVTLPLQPSSTMGQVGRQLAIRGDDINRRYDSEFQTMLQHLQPTAENAYEYFTKIATSLFESGINWGRVVALLGFGYRLALHVYQHGLTGFLGQVTRFVVDFMLHHCIARWIAQRGGWVAALNLGNGPILNVLVVLGVVLLGQFVVRRFFKS
As for B2, in data set [2], the Dox-induced cell death result was “inactive irrespective of Dox dose”. Moreover, the results for the “AUC (48 hr) of SYTOX Green counts/confluence” value in data set [2] (Dox 100 ng/mL) and in data set [2] (Dox 1000 ng/mL) were 331.061 and 348.847, respectively. In the data set on BAK [4], the “difference in Tm compared to WT” value is < 2 °C. Further, the results for the “flow cytometry SYTOX Green counts/confluence (48 hr)” value in data set [3] (Dox 100 ng/mL) and in data set [3] (Dox 1000 ng/mL) were 2.517 and 4.75, respectively.

B3: WT BAK: C-terminus truncated recombinant human BAK with C-terminal 6× histidine tag (protein, UniProt Q16611 2-211, looked up)
Bcl-2 homologous …: ASGQGPGPPRQECGEPALPSASEEQVAQDTEEVFRSYVFYRHQQEQEAEGVAAPADPEMVTLPLQPSSTMGQVGRQLAIIGDDINRRYDSEFQTMLQHLQPTAENAYEYFTKIATSLFESGINWGRVVALLGFGYRLALHVYQHGLTGFLGQVTRFVVDFMLHHCIARWIAQRGGWVAALNLGNGPILNVLVVLGVVLLGQFVVRRFFKS
Regarding B3, the Melting temperature for 3 exps, Mean in the data set with BAK [5] is 77 °C. Further, the “BAK dose above which liposomes are spontaneously permeabilized” value in data set [6] was > 100 nM.
